Biological target: T1, dipeptidylpeptidase IV (DPPIV) expressed on rat proximal tubular epithelial cells (PTEC) (rat, UniProt P14740 1-767)
T1 construct: whole, on cells; also called K9/9 antigen; glycoprotein expressed on rat glomerular epithelial cells and PTEC
Experiment: in vivo biodistribution of 125I-labelled protein in rats, 48 h after tail vein injection
Description: Biodistribution studies were performed using standard procedures for determining tissue distribution of injected radiolabeled proteins (41, 33). […] After 48 h, a blood sample was taken, and major organs were removed, shredded, washed in PBS containing 10 mM EDTA, weighed, and counted. Targeting specificity was determined as percentage of cpm per gram of tissue divided by total injected cpm per gram of body weight.

T1 sequence (P14740 whole entry): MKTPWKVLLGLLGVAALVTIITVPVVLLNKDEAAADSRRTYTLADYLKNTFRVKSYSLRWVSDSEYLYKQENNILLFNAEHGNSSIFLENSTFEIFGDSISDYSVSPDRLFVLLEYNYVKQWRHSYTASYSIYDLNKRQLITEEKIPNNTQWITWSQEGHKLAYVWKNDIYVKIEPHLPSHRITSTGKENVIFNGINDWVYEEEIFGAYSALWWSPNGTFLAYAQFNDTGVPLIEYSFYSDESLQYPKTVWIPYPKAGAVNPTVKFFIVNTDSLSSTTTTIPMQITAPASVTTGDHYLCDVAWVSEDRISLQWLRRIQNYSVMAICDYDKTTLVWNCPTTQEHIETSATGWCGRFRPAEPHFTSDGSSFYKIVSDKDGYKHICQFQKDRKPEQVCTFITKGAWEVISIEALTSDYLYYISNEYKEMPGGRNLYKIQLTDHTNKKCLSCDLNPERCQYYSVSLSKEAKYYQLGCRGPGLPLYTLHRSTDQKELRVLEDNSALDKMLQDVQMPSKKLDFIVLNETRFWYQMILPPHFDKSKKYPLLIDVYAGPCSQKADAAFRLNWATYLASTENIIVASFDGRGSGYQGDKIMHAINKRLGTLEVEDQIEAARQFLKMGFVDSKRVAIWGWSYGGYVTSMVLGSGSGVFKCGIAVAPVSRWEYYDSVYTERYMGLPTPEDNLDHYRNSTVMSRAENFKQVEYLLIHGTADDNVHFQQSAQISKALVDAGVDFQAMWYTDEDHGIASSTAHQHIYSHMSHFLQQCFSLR

binding result: no binding
B1: soluble untargeted Crry (sCrry) (other, rat, UniProt Q63135 36-482, looked up)
chain: GQCPAPPLFPYAKPINPTDESTFPVGTSLKYECRPGYIKRQFSITCEVNSVWTSPQDVCIRKQCETPLDPQNGIVHVNTDIRFGSSITYTCNEGYRLIGSSSAMCIISDQSVAWDAEAPICESIPCEIPPSIPNGDFFSPNREDFHYGMVVTYQCNTDARGKKLFNLVGEPSIHCTSIDGQVGVWSGPPPQCIELNKCTPPHVENAVIVSKNKSLFSLRDMVEFRCQDGFMMKGDSSVYCRSLNRWEPQLPSCFKVKSCGAFLGELPNGHVFVPQNLQLGAKVTFVCNTGYQLKGNSSSHCVLDGVESIWNSSVPVCEQVICKLPQDMSGFQKGLQMKKDYYYGDNVALECEDGYTLEGSSQSQCQSDASWDPPLPKCVSQVICKLPQDMSGFQKGLQMKKDYYYGDNVALECEDGYTLEGSSQSQCQSDASWDPPLPKCVSRSNSG
modifications: 125I-iodinated in the biodistribution study
notes: extracellular domain; Untargeted control, expressed in Pichia; also called soluble Crry
